{"source": "patent US20170073395A1", "about": "(Pfizer, published 2017)", "binders": {"B1": {"name": "C7-ABS-RAGE IgG (human IgG1) (antibody, V domains shown)", "VH": "EVQLVESGGGLVQPGGSLRLSCAASGFTFSSYWMSWVRQAPGKGLEWVASIDQDGSNKYYPDSVKGRFTISRDNAKNSLYLQMNSLRAEDTAVYYCARGGDITTGLDYWGQGTLVTVSS", "VL": "DIQMTQSPSSLSASVGDRVTITCRASQSIGSYLNWYQQKPGKAPKLLIYRASSLASGVPSRFSGSGSGTDFTLTISSLQPEDFATYYCLEFDEHPLTFGGGTKVEIK", "notes": "Human IgG1 format"}}, "key": {"[1]": {"target": "T1, RAGE (cognate target of the anti-RAGE antibodies; species not stated at the place) (Homo sapiens (Human), UniProt Q15109 23-342)", "T1 construct": "not shown: Carrier or tag of the soluble construct", "T1 sequence (Q15109 23-342 limits assumed)": "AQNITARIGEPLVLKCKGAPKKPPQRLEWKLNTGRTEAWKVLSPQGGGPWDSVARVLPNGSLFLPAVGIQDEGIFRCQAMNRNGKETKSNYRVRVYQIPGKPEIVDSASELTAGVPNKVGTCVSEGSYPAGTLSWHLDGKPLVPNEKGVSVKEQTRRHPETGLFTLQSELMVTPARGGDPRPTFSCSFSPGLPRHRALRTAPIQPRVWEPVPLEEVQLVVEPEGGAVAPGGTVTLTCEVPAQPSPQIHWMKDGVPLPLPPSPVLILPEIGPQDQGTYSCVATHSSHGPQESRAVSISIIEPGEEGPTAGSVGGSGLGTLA", "assay": "Biacore SPR", "description": "ABS leads in human IgG1 format were analyzed for specificity and stability.\nBiacore analysis was performed using the T-200 biosensor, series S CM5 chips, an amine-coupling kit, 10 mM sodium acetate immobilization buffer at pH 5.0, 10×HBS-P running buffer and NaOH for regeneration (GE Healthcare). Kinetic assay conditions were established to minimize the influence of mass transfer, avidity and rebinding events. A predefined ligand immobilization program was set up to immobilize approximately 100 Response Units (RU) of IgG on the chip. Purified target proteins were diluted in HBS-P running buffer to a range of final concentrations and injected at 50 μl/min for 3 mins. Dissociation was allowed to proceed for 10 min followed by a 5 sec pulse of 20 mM NaOH for regeneration of the chip surface. All sensorgrams were analyzed using the Biacore T-200 evaluation software."}, "mTRKB": {"target": "T2, mTRKB (mouse, UniProt P15209 32-429, limits assumed)", "T2 construct": "Non-target panel protein", "T2 sequence (P15209 32-429 limits assumed)": "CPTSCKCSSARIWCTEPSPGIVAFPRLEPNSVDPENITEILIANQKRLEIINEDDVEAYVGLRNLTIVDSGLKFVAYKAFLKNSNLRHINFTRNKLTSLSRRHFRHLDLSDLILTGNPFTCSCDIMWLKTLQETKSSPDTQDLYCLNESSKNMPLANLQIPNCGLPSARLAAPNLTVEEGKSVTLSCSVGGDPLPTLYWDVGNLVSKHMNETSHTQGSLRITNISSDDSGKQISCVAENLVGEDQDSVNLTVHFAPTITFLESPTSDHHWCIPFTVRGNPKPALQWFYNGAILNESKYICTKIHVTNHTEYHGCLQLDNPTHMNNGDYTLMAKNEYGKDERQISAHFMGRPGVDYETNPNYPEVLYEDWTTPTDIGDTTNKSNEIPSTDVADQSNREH", "assay": "Biacore specificity assay: IgG immobilised (about 300 RU), antigen injected at 500 nM", "description": "(§1) Biacore specificity analyses were performed using the T-200 biosensor, series S CM5 chips, an amine-coupling kit, 10 mM sodium acetate immobilization buffer at pH 5.0, 10× HBS-P running buffer and NaOH for regeneration (GE Healthcare). A predefined ligand (IgG) immobilization program was set up to immobilize approximately 300 Response Units (RU) on the flow cell for each IgG to be tested. For Anti-RAGE and anti-A33, a panel of fully-purified recombinant target and non-target antigens were diluted in HBS-P running buffer to a final concentration of 500 nM. Four groups of antigens were examined, including: cell membrane proteins (mTRKB, hTRKB, mEGFR, hEGFR, hFceR1, hIL-21R, mICAM1, mICAM2, hICAM1, hCD33, hLAMP-1, hLOX-1, and), soluble signaling molecules (mTNFa, hVEGF, hCXCL13) and albumins (BSA, HSA and MSA). These proteins were injected at 50 μl/min for 3 min, followed by a 5 sec pulse of 20 mM NaOH for regeneration of the chip surface. For pTau, a series of pTau-derived phosphorylated and non-phosphorylated peptides were flowed, as in Shih et al.³. All sensorgrams were analyzed using the Biacore T-200 evaluation software."}, "hTRKB": {"target": "T3, hTRKB (human, UniProt Q16620 32-430, limits assumed)", "T3 construct": "Non-target panel protein", "T3 sequence (Q16620 32-430 limits assumed)": "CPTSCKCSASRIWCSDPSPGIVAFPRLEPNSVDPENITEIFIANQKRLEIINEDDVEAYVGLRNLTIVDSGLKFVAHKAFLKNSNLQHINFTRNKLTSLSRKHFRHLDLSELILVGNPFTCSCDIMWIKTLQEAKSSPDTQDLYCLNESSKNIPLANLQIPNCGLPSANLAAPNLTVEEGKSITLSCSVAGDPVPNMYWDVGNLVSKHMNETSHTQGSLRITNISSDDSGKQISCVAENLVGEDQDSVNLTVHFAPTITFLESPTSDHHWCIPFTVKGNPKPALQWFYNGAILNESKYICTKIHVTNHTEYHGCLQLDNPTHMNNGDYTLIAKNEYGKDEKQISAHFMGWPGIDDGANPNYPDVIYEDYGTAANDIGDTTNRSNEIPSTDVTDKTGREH", "assay": "Biacore specificity assay: IgG immobilised (about 300 RU), antigen injected at 500 nM", "description": "as §1"}, "mEGFR": {"target": "T4, mEGFR (mouse, UniProt Q01279 25-647, limits assumed)", "T4 construct": "Non-target panel protein", "assay": "Biacore specificity assay: IgG immobilised (about 300 RU), antigen injected at 500 nM", "description": "as §1"}, "hEGFR": {"target": "T5, hEGFR (human, UniProt P00533 25-645, limits assumed)", "T5 construct": "Non-target panel protein", "assay": "Biacore specificity assay: IgG immobilised (about 300 RU), antigen injected at 500 nM", "description": "as §1"}, "hFceR1": {"target": "T6, hFceR1 (human, UniProt P12319 26-205)", "T6 construct": "Non-target panel protein", "T6 sequence (alpha)": "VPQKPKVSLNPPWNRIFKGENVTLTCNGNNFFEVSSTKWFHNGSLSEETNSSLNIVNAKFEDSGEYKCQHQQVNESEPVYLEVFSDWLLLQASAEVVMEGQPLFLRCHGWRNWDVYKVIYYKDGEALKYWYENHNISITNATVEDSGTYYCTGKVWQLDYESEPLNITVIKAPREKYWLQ", "assay": "Biacore specificity assay: IgG immobilised (about 300 RU), antigen injected at 500 nM", "description": "as §1"}, "hICAM1": {"target": "T7, hICAM1 (human, UniProt P05362 28-480, limits assumed)", "T7 construct": "Non-target panel protein", "T7 sequence (P05362 28-480 limits assumed)": "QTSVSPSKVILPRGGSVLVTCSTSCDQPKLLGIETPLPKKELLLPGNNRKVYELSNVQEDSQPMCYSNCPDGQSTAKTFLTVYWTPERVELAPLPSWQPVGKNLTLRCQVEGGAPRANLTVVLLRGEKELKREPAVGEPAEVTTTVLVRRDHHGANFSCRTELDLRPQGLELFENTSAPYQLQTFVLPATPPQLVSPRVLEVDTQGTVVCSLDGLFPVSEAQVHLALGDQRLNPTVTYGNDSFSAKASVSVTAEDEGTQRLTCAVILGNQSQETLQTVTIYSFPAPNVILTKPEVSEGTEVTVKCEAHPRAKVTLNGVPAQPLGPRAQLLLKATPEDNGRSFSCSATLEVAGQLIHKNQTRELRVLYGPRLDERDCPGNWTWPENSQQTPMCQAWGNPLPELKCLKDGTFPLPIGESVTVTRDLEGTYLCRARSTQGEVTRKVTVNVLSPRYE", "assay": "Biacore specificity assay: IgG immobilised (about 300 RU), antigen injected at 500 nM", "description": "as §1"}, "hCD33": {"target": "T8, hCD33 (human, UniProt P20138 18-259, limits assumed)", "T8 construct": "Non-target panel protein", "T8 sequence (P20138 18-259 limits assumed)": "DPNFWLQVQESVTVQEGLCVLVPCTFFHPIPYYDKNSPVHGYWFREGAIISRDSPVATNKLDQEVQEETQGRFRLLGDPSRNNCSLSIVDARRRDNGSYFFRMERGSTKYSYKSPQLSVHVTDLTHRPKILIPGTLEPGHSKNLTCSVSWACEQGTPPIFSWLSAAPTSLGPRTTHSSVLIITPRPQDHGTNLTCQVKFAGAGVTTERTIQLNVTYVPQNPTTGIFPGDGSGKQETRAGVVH", "assay": "Biacore specificity assay: IgG immobilised (about 300 RU), antigen injected at 500 nM", "description": "as §1"}, "hLAMP-1": {"target": "T9, hLAMP-1 (human, UniProt P11279 29-382, limits assumed)", "T9 construct": "Non-target panel protein", "T9 sequence (looked up)": "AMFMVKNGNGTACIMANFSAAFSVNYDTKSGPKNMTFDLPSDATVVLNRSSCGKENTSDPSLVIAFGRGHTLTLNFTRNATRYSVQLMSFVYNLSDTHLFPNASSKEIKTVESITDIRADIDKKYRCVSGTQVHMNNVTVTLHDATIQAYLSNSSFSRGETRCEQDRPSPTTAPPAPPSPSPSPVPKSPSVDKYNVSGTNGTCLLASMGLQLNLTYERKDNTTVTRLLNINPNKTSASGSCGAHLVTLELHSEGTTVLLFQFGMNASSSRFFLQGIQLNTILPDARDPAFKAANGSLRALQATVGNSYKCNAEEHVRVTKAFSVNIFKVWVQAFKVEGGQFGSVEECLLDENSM", "assay": "Biacore specificity assay: IgG immobilised (about 300 RU), antigen injected at 500 nM", "description": "as §1"}, "mTNFa": {"target": "T10, mTNFa (mouse, UniProt P06804 80-235)", "T10 construct": "Non-target panel protein", "T10 sequence (looked up)": "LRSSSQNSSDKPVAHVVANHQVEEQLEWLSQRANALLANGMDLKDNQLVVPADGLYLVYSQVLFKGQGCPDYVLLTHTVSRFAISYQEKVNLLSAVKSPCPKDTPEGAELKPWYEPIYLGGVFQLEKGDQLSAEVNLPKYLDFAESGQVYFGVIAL", "assay": "Biacore specificity assay: IgG immobilised (about 300 RU), antigen injected at 500 nM", "description": "as §1"}, "BSA": {"target": "T11, BSA (UniProt P02769 25-607)", "T11 construct": "Non-target panel protein (albumins)", "T11 sequence (P02769 25-607 limits assumed)": "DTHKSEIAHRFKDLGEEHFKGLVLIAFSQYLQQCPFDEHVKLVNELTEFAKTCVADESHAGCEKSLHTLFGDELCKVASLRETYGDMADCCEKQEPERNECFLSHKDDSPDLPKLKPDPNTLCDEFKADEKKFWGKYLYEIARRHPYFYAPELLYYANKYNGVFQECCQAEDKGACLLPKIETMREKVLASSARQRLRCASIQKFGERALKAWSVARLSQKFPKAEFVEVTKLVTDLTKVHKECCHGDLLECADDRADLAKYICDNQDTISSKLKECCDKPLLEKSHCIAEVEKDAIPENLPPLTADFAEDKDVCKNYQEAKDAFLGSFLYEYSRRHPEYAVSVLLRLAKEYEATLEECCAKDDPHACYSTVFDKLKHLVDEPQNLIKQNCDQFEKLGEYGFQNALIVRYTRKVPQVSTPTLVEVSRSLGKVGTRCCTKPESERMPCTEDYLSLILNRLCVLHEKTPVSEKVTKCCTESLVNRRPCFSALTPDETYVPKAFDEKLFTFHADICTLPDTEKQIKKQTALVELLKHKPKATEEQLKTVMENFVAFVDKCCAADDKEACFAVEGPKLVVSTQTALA", "assay": "Biacore specificity assay: IgG immobilised (about 300 RU), antigen injected at 500 nM", "description": "as §1"}, "HSA": {"target": "T12, HSA (UniProt P02768 25-609)", "T12 construct": "Non-target panel protein (albumins)", "T12 sequence (P02768 25-609)": "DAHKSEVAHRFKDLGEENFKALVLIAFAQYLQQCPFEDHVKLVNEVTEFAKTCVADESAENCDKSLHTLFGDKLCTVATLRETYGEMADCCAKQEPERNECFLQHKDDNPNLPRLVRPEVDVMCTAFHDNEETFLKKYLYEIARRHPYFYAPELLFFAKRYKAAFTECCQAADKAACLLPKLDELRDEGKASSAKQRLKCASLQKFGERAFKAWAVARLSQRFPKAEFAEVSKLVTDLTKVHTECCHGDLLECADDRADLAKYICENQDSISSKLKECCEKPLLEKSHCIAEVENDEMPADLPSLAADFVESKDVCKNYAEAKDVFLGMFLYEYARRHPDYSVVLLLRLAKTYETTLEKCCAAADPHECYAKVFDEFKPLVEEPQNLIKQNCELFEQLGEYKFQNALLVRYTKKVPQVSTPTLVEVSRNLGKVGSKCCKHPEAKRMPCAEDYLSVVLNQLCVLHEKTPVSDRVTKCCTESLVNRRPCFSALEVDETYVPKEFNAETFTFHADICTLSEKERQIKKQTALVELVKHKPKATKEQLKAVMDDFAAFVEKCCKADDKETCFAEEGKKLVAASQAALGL", "assay": "Biacore specificity assay: IgG immobilised (about 300 RU), antigen injected at 500 nM", "description": "as §1"}, "MSA": {"target": "T13, MSA (UniProt P07724 25-608)", "T13 construct": "Non-target panel protein (albumins)", "assay": "Biacore specificity assay: IgG immobilised (about 300 RU), antigen injected at 500 nM", "description": "as §1"}, "mRAGE": {"target": "T14, mRAGE (mouse, UniProt Q62151 24-342, limits assumed)", "T14 construct": "also called mouse RAGE", "T14 sequence (Q62151 24-342 limits assumed)": "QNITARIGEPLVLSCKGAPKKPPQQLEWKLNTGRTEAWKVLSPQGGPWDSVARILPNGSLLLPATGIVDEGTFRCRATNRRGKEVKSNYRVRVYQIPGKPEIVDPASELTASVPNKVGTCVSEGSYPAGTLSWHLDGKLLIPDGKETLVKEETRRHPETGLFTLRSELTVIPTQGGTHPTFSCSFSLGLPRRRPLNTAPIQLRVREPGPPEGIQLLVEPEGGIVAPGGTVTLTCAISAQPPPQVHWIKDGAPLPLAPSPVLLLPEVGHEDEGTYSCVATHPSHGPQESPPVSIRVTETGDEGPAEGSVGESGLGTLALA", "assay": "Biacore specificity assay: IgG immobilised (about 300 RU), antigen m-RAGE-fc injected at 500 nM", "description": "as §1"}}, "data": [{"binder": "B1", "values": [{"measurement": "fold affinity improvement over Par-RAGE", "setting": "[1]", "result": "~2", "unit": "fold"}, {"measurement": "binding result", "setting": "mTRKB", "result": "no binding (tested: 500 nM)"}, {"measurement": "binding result", "setting": "hTRKB", "result": "no binding (tested: 500 nM)"}, {"measurement": "binding result", "setting": "mEGFR", "result": "no binding (tested: 500 nM)"}, {"measurement": "binding result", "setting": "hEGFR", "result": "no binding (tested: 500 nM)"}, {"measurement": "binding result", "setting": "hFceR1", "result": "no binding (tested: 500 nM)"}, {"measurement": "binding result", "setting": "hICAM1", "result": "no binding (tested: 500 nM)"}, {"measurement": "binding result", "setting": "hCD33", "result": "no binding (tested: 500 nM)"}, {"measurement": "binding result", "setting": "hLAMP-1", "result": "no binding (tested: 500 nM)"}, {"measurement": "binding result", "setting": "mTNFa", "result": "no binding (tested: 500 nM)"}, {"measurement": "binding result", "setting": "BSA", "result": "no binding (tested: 500 nM)"}, {"measurement": "binding result", "setting": "HSA", "result": "no binding (tested: 500 nM)"}, {"measurement": "binding result", "setting": "MSA", "result": "no binding (tested: 500 nM)"}, {"measurement": "binding result", "setting": "mRAGE", "result": "binds"}]}]}
